Test results taken from patent publication US20050182242A1, “Global analysis of protein activities using proteome chips” (priority 2001, published 2005).

B1: RPL9B: yeast GST-HisX6 fusion protein on proteome chip (protein, UniProt P51401 1-191, looked up)
Large ribosomal subunit …: MKYIQTEQQIEIPEGVTVSIKSRIVKVVGPRGTLTKNLKHIDVTFTKVNNQLIKVAVHNGDRKHVAALRTVKSLVDNMITGVTKGYKYKMRYVYAHFPINVNIVEKDGAKFIEVRNFLGDKKIRNVPVRDGVTIEFSTNVKDEIVLSGNSVEDVSQNAADLQQICRVRNKDIRKFLDGIYVSHKGFIVEDM
modifications: GST-HisX6 tag
notes: yeast GST-HisX6 fusion protein on proteome chip
B2: DIN7: yeast GST-HisX6 fusion protein on proteome chip (protein, UniProt Q12086 1-430, looked up)
DNA damage-inducible protein …: MGIPGLLPQLKRIQKQVSLKKYMYQTLAIDGYAWLHRASCACAFELVMNKPTNKYLQFFIKRLQLLKRLKIKPYIVFDGDSLFVKNHTETRRRKKRLENEMIAKKLWSAGNRYNAMEYFQKSVDITPEMAKCIIDYCKLHSIPYIVAPFEADPQMVYLEKMGLIQGIISEDSDLLVFGCKTLITKLNDQGKALEISKDDFSALPENFPLGELSEQQFRNLVCLAGCDYTSGIWKVGVVTAMKIVKRYSEMKDILIQIERTEKLCFSKAFKQQVEFANYAFQYQRVFCPLSNQITTLNNIPKAVTNSHAEIIKIMKCIGSVVERGSGVRKDVINTKNIDHKVHEMIAKGELHPVDMASKLINRERKLKARKLFKVGLLGGESNSFNKKVEQPLVDTQDVLSERENSLDNKNASSIYMTSPAAISGTVPSIF
modifications: GST-His6 fusion tag
notes: as for B1
B3: CAM1: yeast GST-HisX6 fusion protein on proteome chip (protein, UniProt P29547 2-415, looked up)
Elongation factor 1-gamma 1: SQGTLYANFRIRTWVPRGLVKALKLDVKVVTPDAAAEQFARDFPLKKVPAFVGPKGYKLTEAMAINYYLVKLSQDDKMKTQLLGADDDLNAQAQIIRWQSLANSDLCIQIANTIVPLKGGAPYNKKSVDSAMDAVDKIVDIFENRLKNYTYLATENISLADLVAASIFTRYFESLFGTEWRAQHPAIVRWFNTVRASPFLKDEYKDFKFADKPLSPPQKKKEKKAPAAAPAASKKKEEAKPAATETETSSKKPKHPLELLGKSTFVLDDWKRKYSNEDTRPVALPWFWEHYNPEEYSLWKVTYKYNDELTLTFMSNNLVGGFFNRLSASTKYMFGCLVVYGENNNNGIVGAVMVRGQDYVPAFDVAPDWESYDYAKLDPTNDDDKEFINNMWAWDKPVSVNGEPKEIVDGKVLK
modifications: GST-His6 tag
notes: as for B1
B4: RTG3: yeast GST-HisX6 fusion protein on proteome chip (protein, UniProt P38165 1-486, looked up)
Retrograde regulation protein …: MMNNNESEAENQRLLDELMNQTKVLQETLDFSLVTPTPHHNDDYKIHGSAYPGGETPAQQHEKLSYINTHNSNDNNNLMGSQARSNSQTPTASTIYEEAESQSSYLDDMFRTSQGGRPVTQNSISSIGQGPLRSSYSMAYDSPVDRAMNTPLQQQEGLKAELPHDFLFQHGTDDTMYNLTDDLSSSLSSSINSDMMTPNTYSSSFSYNPQSLGPASVSSTYSPKVRSPSSSFRAGSFLSSSFRHGSINTPRTRHTSISSNMTENIGPGSVPKILGGLTSDEKLRRKREFHNAVERRRRELIKQKIKELGQLVPPSLLNYDDLGKQIKPNKGIILDRTVEYLQYLAEILEIQARKKKALLAKIKELEEKKSSVAALSPFTNNHHASSGQNNSENSEERIIDIRSVPNALMNEQNSKAELHNWEPPLYDSVGNHNHAGTMESHPHTNIHEELKEFLSGDLIEAEDNAKLMFGDDNSNPADYLLEFGSG
modifications: GST-His6 tag
notes: as for B1

System: PI(4)P liposomes
Assay: Yeast proteome chip probed with PI(4)P liposomes
Conditions: liposome binding signal on yeast proteome chip, Cy3-streptavidin detection
Text: (§1) To identify PI-binding proteins in yeast, liposomes were used as probes because the liposome provides the most relevant physiological condition to assay the interactors. Six types of liposomes were used. Each contains phosphatidylcholine (“PC”) with 1% (w/w) N-(biotinoyl)-1,2-dihexadecanoyl-sn-glycero-3-phosphoethanolamine, triethylammonium salt (biotin DHPE). The biotinylated lipid serves as a label that can be detected by Cy3-streptavidin (21). In addition to PC, the five other liposomes contain either 5% (w/w) PI(3)P, PI(4)P, PI(3,4)P2, PI(4,5)P2, or PI(3,4,5)P3 (FIG. 3A).
(§2) The protein-liposome interaction was assayed as follows. Appropriate amounts of each lipid in chloroform were mixed and dried under nitrogen. The lipid mixture was resuspended in TBS buffer by vortexing. The liposomes were created by sonication. Blocked proteome chips were washed three to five times in PBS buffer, and the extra liquid on the glass surface was removed by tapping the slides vertically on a KIMWIPE™. 200 μl of liposome solution was added to the proteome chip and immediately covered by a hydrophobic plastic cover slip (GRACE BIO-LAB™, USA). After trapped air bubbles were removed, the chip was incubated in a humidity chamber at RT for one hour. To remove the cover slip, the chip was immersed into large volume of PBS buffer (50 ml), so that the slip would float away. The chip was then moved to a second PBS bath (>50 ml) and washed 3×5 min with shaking at RT. After removing extra liquid on the surface of the chip, about 100 μl of Cy3 or Cy5 conjugated streptavidin (PIERCE™, USA; 1:2000 to 1:4000 dilution) was added to the surface and covered by a hydrophobic plastic cover slip (GRACE BIO-LABS™, USA). The chip was incubated for greater than 30 min in the dark at RT. The chip was then washed as described above. To completely remove the liquid on the chip, the chip was spun to dryness at 1500-2000 rpm for 5-10 min at RT.
(§3) • 1. S. Fields, Y. Kohara, D. J. Lockhart, Proc. Natl. Acad. Sci. 96, 8825 (1999); A. Goffeau et al., Science 274, 563 (1996). • 2 P. Ross-Macdonald et al., Nature 402, 413 (1999); J. L., DeRisi, V. R. Iyer, P. O. Brown, Science 278, 680 (1997); E. A. Winzeler et al., Science 285, 901 (1999). P. Uetz et al., Nature 403, 623 (2000); T. Ito et al., Proc. Natl. Acad. Sci. USA. 97, 1143 (2000) • 3 H. Zhu, M. Snyder, Curr. Opin. Chem. Biol. 5, 40 (2001). • 4 M. R. Martzen et al., Science 286, 1153 (1999). • 5 H. Zhu et al., Nat. Genet. 26, 283 (2000). • 6 G. MacBeath, S. L. Schreiber, Science 289, 1760 (2000). • 7 A. Caveman, J. Cell Sci. 113, 3543 (2000). • 8 P. Arenkov et al., Anal. Biochem 278, 123 (2000). • 9 D. A. Mitchell, T. K. Marshall, R. J. Deschenes, Yeast 9, 715 (1993). The expression vector pEGH was created by inserting an RGS-HisX6 epitope tag between the GST gene and the polycloning site of pEG(KG). The yeast ORFs were cloned using the strategy described previously (5), except every step was done in a 96-well format. Plasmid DNAs confirmed by DNA sequencing were reintroduced into both yeast (Y258) and E. coli (DH5a). […] 0.1 mM calcium was present in buffers in all subsequent steps. The chip was washed three times with PBS at RT. Cy3-conjugated streptavidin (Jackson IR, USA) (1:5000 dilution) was added to the chip and incubated for 30 min at RT. After extensive washing, the chip was spun dry and scanned using a microarray scanner; the data was subsequently acquired with the GENEPIX™ array densitometry software (Axon, USA). • 12 S. S. Hook, A. R. Means, Annu. Rev. Pharmacol. Toxicol.41, 471 (2001). • 13 M. S. Cyert, R. Kunisawa, D. Kaim, J. Thorner, Proc. Natl. Acad. Sci. USA 88, 7376 (1991). • 14 D. A. Stirling, K. A. Welch, M. J. Stark, EMBO J. 13, 4329 (1994). • 15 F. Bohl, Kruse, EMBO J. 19, 5514 (2000); E. Bertrand et al., Mol. Cell 2, 437 (1998). • 16 D. C. Winter, E. Y. Choe, R. Li, Proc. Nat. Acad Sci. USA 96, 7288 (1999). • 17 C.

Molecule	PI(4)P
B1	12.85
B2	33.75
B3	21.99
B4	12.19

System: PI(4,5)P2 liposomes
Assay: Yeast proteome chip probed with PI(4,5)P2 liposomes
Conditions: liposome binding signal on yeast proteome chip, Cy3-streptavidin detection
Text: as §1, §2, §3

Molecule	PI(4, 5)P2
B1	1.96
B2	14.59
B3	25.69
B4	12.41

System: PI(3,4)P2 liposomes
Assay: Yeast proteome chip probed with PI(3,4)P2 liposomes
Conditions: liposome binding signal on yeast proteome chip, Cy3-streptavidin detection
Text: as §1, §2, §3

Molecule	PI(3, 4)P2
B1	7.38
B2	10.05
B3	−0.16
B4	0.16

System: phosphatidylcholine (PC) liposomes
Assay: Yeast proteome chip probed with PC liposomes
Conditions: liposome binding signal on yeast proteome chip, Cy3-streptavidin detection
Text: as §1, §2, §3

Molecule	PC
B1	6.46
B2	21.42
B3	18.49
B4	5.58

System: PI(3,4,5)P3 liposomes
Assay: Yeast proteome chip probed with PI(3,4,5)P3 liposomes
Conditions: liposome binding signal on yeast proteome chip, Cy3-streptavidin detection
Text: as §1, §2, §3

Molecule	PI(3, 4, 5)P3
B1	−0.45
B2	14.06
B3	4.16
B4	−5.29
